The values below come from paper PMC11154737.

The target of this experiment is Streptolysin O (SLO), wild type, full length (Streptococcus pyogenes) (UniProt P0DF96). Put plainly: ELISA. Background: An ELISA detects its analyte on a solid surface through an enzyme-linked reagent.
UniProt P0DF96, sequence (P0DF96 34-571): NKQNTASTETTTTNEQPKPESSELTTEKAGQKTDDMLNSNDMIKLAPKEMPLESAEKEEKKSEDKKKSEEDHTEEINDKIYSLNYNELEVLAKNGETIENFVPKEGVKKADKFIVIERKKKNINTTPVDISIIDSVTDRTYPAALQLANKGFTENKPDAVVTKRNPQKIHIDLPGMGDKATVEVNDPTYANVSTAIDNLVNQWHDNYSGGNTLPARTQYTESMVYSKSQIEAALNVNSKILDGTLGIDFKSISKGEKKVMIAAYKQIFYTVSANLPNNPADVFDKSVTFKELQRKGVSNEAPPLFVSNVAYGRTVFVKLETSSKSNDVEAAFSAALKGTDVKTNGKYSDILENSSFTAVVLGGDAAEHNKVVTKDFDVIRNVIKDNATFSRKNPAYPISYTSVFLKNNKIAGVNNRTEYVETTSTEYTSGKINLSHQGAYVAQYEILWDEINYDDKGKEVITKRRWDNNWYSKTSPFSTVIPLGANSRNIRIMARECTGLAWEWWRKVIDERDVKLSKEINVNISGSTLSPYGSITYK

In turn, “murine neutralizing monoclonal antibody (nAb) against Streptolysin O, Abcam AB23501” displayed a Kd of 1.12 nM. This lies in the single-digit nanomolar range.

What is called Kd is the equilibrium constant for the complex coming apart. Low readings indicate higher affinity, high ones lower affinity.
